This assay concerns the target intact IFNAR1 from human cells (human) (UniProt P17181). The experiment in a line: cell-based or functional assay.
UniProt P17181, sequence (P17181 28-557): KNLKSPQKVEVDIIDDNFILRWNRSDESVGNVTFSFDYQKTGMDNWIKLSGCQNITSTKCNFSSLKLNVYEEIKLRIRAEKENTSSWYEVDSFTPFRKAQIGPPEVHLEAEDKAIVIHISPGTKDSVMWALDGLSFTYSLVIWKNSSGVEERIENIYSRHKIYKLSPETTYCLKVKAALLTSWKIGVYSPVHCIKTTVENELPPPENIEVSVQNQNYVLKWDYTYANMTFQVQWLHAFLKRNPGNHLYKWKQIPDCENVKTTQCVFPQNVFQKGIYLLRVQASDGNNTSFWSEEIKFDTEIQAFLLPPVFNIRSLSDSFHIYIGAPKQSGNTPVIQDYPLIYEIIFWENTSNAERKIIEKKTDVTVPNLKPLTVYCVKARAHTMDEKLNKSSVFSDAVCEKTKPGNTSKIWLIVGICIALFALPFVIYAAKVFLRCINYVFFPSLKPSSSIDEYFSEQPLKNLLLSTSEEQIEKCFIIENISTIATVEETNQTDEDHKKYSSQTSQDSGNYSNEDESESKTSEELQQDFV

“IR1B4/PRMT protein of human U266S cells (from UniProt Q99873 11-371)” came in with a growth inhibitory effect of IFN-β on myeloma cells (Alamar Blue), with antisense-1 oligonucleotide against IR1B4 below 5 fold.

Values taken from patent EP1780277A1.
